Laboratory results from PMC8304084, “A Concerted Action of UBA5 C-Terminal Unstructured Regions Is Important for Transfer of Activated UFM1 to UFC1” (International Journal of Molecular Sciences, 2021).
Read-outs that look alike come from different tables or passages of the source.

Legend:
UFC1 = target: T1, UFC1 (Homo sapiens, UniProt Q9Y3C8); test: In vitro thioester formation (ufmylation) assay, UFC1~UFM1 conjugate; format: biochemical; settings: 70 µM UFM1, 20 µM UFC1, 20 µM UBA5 construct, 1 mM ATP, 50 mM HEPES pH 7.5, 22 °C
T1 construct: Full length UFC1, residues 1–167; modified ubiquitin tag (Ub19) with TEV site (N, cleaved yes); made in house; host or cells: E. coli T7 Express
T1 sequence (Q9Y3C8 1-167): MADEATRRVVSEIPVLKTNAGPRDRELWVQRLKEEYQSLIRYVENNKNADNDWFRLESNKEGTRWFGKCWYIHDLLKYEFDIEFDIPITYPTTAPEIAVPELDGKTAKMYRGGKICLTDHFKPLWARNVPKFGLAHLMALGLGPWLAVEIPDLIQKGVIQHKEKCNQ
Experimental: First, we analyzed the effect of the UBA5 C-terminus on UFM1 transfer to UFC1 with an in vitro thioester formation assay (Figure 1B–E).
Ufmylation reaction assays were adopted from work of Xie. Briefly, 70 µM UFM1, 20 µM UFC1 and 20 µM of different UBA5 constructs were mixed in reaction buffer (50 mM HEPES pH = 7.5, 100 mM NaCl, 5 mM MgCl2). After starting the reaction with addition of 1 mM ATP, the reaction mix was incubated at 22 °C for the desired time. To quench the reaction and prepare electrophoretic samples, 1 µL of the reaction mix was added to 99 µL 1x non-reducing SDS loading buffer and frozen in liquid nitrogen. Sample content was visualized by sodium dodecyl sulfate polyacrylamide gel electrophoresis (SDS-PAGE). The transfer to polyvinylidene difluoride (PVDF) membrane was performed via a Trans-Blot® Turbo™ Transfer System (Bio-Rad, München, Germany). After transfer the membrane was blocked with TBST (Tris-buffered saline with Tween20 buffer, 20 mM Tris, 150 mM NaCl and 0.1% TWEEN 20) containing 5% w/v nonfat dry milk for 1 h, followed by α-UFC1 antibody incubation over night at 4 °C (ab189251 abcam, 1:10,000 in TBST containing 5% w/v nonfat dry milk). After washing with TBST the membrane was incubated with secondary antibody (anti-rabbit-HRP) for 1 h at RT and again washed with TBST. […] For quantification of UFC1 ufmylation coloc2 software implemented in ImageJ was used.

UBA5 [1] = settings: cited from earlier work
Text: Another conserved region in UBA5 is located at it very C-terminus (R3, residues 393–404) and is predicted to have a helical conformation. […] UFC1, the only known E2 enzyme for UFM1, was characterized structurally a few years after discovery of the UFM1 cascade. […] In our structure we observed that the UFC1 K33 sidechain forms an intermolecular hydrogen bond with the UBA5 D389 sidechain (Figure 3F). In contrast, UFC1 Q31 is not in contact with any of the UBA5 R3 residue and could not affect the UBA5:UFC1 interaction.

UBA5 [2] = settings: in vitro; cited from earlier work
Text: The UBA5 C-terminal part (Figure 1A) plays a complex regulatory role, consisting of a few conserved regions that mediate interaction of UBA5 with other key players in the ufmylation cascade. The first sequence is a conserved region (R1, residues 334–348), interacting with UFM1 [10, 29, 30, 31, 32] and also with LC3/GABARAP proteins. This region (called LIR/UFIM by its dual nature) is important for the initial binding of UFM1 to UBA5 [10, 29, 31, 32] and for the following UFM1 activation in a trans-fashion. Trans-activation means that UBA5 forms an active ho ...

B1: AD^1–330: UBA5 adenylation domain, residues 1–330 (protein, UniProt Q9GZZ9 1-330, looked up, fragment)
chain: MAESVERLQQRVQELERELAQERSLQVPRSGDGGGGRVRIEKMSSEVVDSNPYSRLMALKRMGIVSDYEKIRTFAVAIVGVGGVGSVTAEMLTRCGIGKLLLFDYDKVELANMNRLFFQPHQAGLSKVQAAEHTLRNINPDVLFEVHNYNITTVENFQHFMDRISNGGLEEGKPVDLVLSCVDNFEARMTINTACNELGQTWMESGVSENAVSGHIQLIIPGESACFACAPPLVVAANIDEKTLKREGVCAASLPTTMGVVAGILVQNVLKFLLNFGTVSFYLGYNAMQDFFPTMSMKPNPQCDDRNCRKQQEEYKKKVAALPKQEVIQE
modifications: adenylation domain
UFC1~UFM1 conjugation (UFC1; 7 h): 80% | UFC1 conjugated to UFM1 (UFC1~UFM1) (UFC1; within 30 min, Western blot, triplicates): less than 5%

B2: UFC1 K33A: UFC1 K33A mutation, literature (protein, UniProt Q9Y3C8 1-167, looked up, variant K33A)
Ubiquitin-fold …: MADEATRRVVSEIPVLKTNAGPRDRELWVQRLAEEYQSLIRYVENNKNADNDWFRLESNKEGTRWFGKCWYIHDLLKYEFDIEFDIPITYPTTAPEIAVPELDGKTAKMYRGGKICLTDHFKPLWARNVPKFGLAHLMALGLGPWLAVEIPDLIQKGVIQHKEKCNQ
effect of UFC1 mutation on UBA5 binding and UFM1 transfer (UBA5 [1]): significantly reduces both UBA5 binding and UFM1 transfer from UBA5 to UFC1 | effect of UFC1 mutation on UBA5 binding and UFM1 transfer (UBA5 [1]; listed as K33A): impaired UBA5 binding and UFM1 transfer to UFC1

B3: GABARAP: GABARAP, residues 3–116 (protein)
chain: GAMFVYKEEHPFEKRRSEGEKIRKKYPDRVPVIVEKAPKARIGDLDKKKYLVPSDLTVGQFYFLIRKRIHLRAEDALFFFVNNVIPPTSATMGQLYQEHHEEDFFLYIAYSDESVYG
modifications: left off: modified ubiquitin tag (Ub19), N-terminal, cleaved
effect on UFM1 binding to UBA5 (UBA5 [2]): inhibit UFM1 binding to UBA5
